From publication PMC11339442

Molecular target: CD20
Assay: flow_cytometry
Settings: 4.0 °C

EC50 (pH 6.0)	EC50 (pH 7.4)	Substance
20 nM	–	2OSL-Fab-H-Y97NY
8 nM	–	2OSL-Fab-L-Y32NY
–	14 nM	2OSL-Fab (WT)
